Test results as given in PMC6351565 (2019).
Where no end group is shown, it is not given here. [ ]: non-standard residue; d: D form. pT = C[C@@H](OP(=O)(O)O)[C@H](N)C(=O)O; pS = N[C@@H](COP(=O)(O)O)C(=O)O

T1: 14-3-3θ (human, UniProt P27348 1-245)
T1 chain: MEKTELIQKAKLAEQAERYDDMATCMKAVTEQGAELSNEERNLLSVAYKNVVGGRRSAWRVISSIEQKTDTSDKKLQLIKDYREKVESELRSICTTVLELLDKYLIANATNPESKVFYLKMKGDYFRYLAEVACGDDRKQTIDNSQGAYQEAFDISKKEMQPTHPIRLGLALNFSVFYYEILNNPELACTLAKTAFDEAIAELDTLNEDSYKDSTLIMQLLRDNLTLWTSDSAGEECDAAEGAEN


Biological target: T1, 14-3-3θ
Test: ITC

Binder	Kd
Ac-LSDSYSN[pT]LPVRKS-NH2 (SMILES CC(=O)N[C@@H](CC(C)C)C(=O)N[C@@H](CO)C(=O)N[C@@H](CC(=O)O)C(=O)N[C@@H](CO)C(=O)N[C@@H](Cc1ccc(O)cc1)C(=O)N[C@@H](CO)C(=O)N[C@@H](CC(N)=O)C(=O)N[C@H](C(=O)N[C@@H](CC(C)C)C(=O)N1CCC[C@H]1C(=O)N[C@H](C(=O)N[C@@H](CCCNC(=N)N)C(=O)N[C@@H](CCCCN)C(=O)N[C@@H](CO)C(N)=O)C(C)C)[C@@H](C)OP(=O)(O)O) [Site 2 peptide (pT340)]	5.5 µM
AQPKSL[pS]PPQSQSKLSDSYSN[pT]LPVRKS [Sites 1,2 peptide (pS325/pT340)]	16.2 µM
Ac-TLPRSS[pS]MAAGLEK-NH2 (SMILES CSCC[C@H](NC(=O)[C@H](COP(=O)(O)O)NC(=O)[C@H](CO)NC(=O)[C@H](CO)NC(=O)[C@H](CCCNC(=N)N)NC(=O)[C@@H]1CCCN1C(=O)[C@H](CC(C)C)NC(=O)[C@@H](NC(C)=O)[C@@H](C)O)C(=O)N[C@@H](C)C(=O)N[C@@H](C)C(=O)NCC(=O)N[C@@H](CC(C)C)C(=O)N[C@@H](CCC(=O)O)C(=O)N[C@@H](CCCCN)C(N)=O) [Site 4 peptide (pS366)]	16.5 µM
Ac-ATTENK[pT]LPRSSS-NH2 (SMILES CC(=O)N[C@@H](C)C(=O)N[C@H](C(=O)N[C@H](C(=O)N[C@@H](CCC(=O)O)C(=O)N[C@@H](CC(N)=O)C(=O)N[C@@H](CCCCN)C(=O)N[C@H](C(=O)N[C@@H](CC(C)C)C(=O)N1CCC[C@H]1C(=O)N[C@@H](CCCNC(=N)N)C(=O)N[C@@H](CO)C(=O)N[C@@H](CO)C(=O)N[C@@H](CO)C(N)=O)[C@@H](C)OP(=O)(O)O)[C@@H](C)O)[C@@H](C)O) [Site 3 peptide (pT360)]	15.5 µM
